Here are results for 13 molecules from patent US20210221878A1 (Bristol-Myers Squibb, published 2021).

Test [1] has as its target T1, α-synuclein inducing species in brain lysates of MSA patients (12-18, 01-03, 04-51) (human, UniProt P37840 1-140). As to the kind of experiment: cell-based or functional assay.
The target in test [2] is T1, α-synuclein inducing species in brain …. Nature of the test: cell-based or functional assay. This is another data set of the same source.
Test [3] concerns the target mouse αSyn 111-140 peptide (mouse, C-terminal amide (NH2)). Nature of the test: solution competition ELISA, free antibody captured on PFF plate; column Mouse 111-140 (nM). A general note: ELISA stands for enzyme-linked immunosorbent assay.
Another test has as its target rat αSyn 111-140 peptide (rat, C-terminal amide (NH2)). As to the kind of experiment: solution competition ELISA, free antibody captured on PFF plate; column Rat 111-140 (nM).
The target in test [4] is T2, full-length human recombinant wild-type β-synuclein monomer (human, UniProt Q16143 1-134).
T2 construct: mature; also called human βSyn monomer
T2 sequence (Q16143 whole entry): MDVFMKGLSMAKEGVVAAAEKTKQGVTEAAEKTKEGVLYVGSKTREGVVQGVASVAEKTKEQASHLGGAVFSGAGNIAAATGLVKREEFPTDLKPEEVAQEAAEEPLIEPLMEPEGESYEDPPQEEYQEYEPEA
As to the kind of experiment: competition ELISA: antibody pre-incubated with titrated synuclein species in solution; unbound antibody captured on WT PFF-coated plate (CPS).

Test [5] addresses T3, full-length human recombinant wild-type γ-synuclein monomer (human, UniProt O76070 1-127).
T3 construct: mature; also called human γSyn monomer
Described as above.

The target of test [6] is PFF used as inducer in the immunodepletion assay of Example 10 (human, UniProt P37840 1-140). As to the kind of experiment: cell-based or functional assay.
Test [7] concerns the target T1, α-synuclein inducing species in brain …. As to the kind of experiment: cell-based or functional assay. This is another data set of the same source.
In a further test the target is T4, 128-138.
T4 peptide: {Biotin-PEG4′}-PSEEGYQDYEP-NH2
As to the kind of experiment: 1-sided ELISA on plate-bound biotinylated peptide, luminescence (CPS).

In a further test the target is T5, 118-128.
T5 construct: also called alphaSyn 118-128
T5 peptide: {Biotin-PEG4′}-VDPDNEAYEMP-NH2
Described as above.

Another test has as its target T6, 124-134.
T6 construct: also called alphaSyn 124-134
T6 peptide: {Biotin-PEG4′}-AYEMPSEEGYQ-NH2
The test is described as above.

The target of a further test is T7, 117-127.
T7 construct: also called alphaSyn 117-127
T7 peptide: {Biotin-PEG4′}-PVDPDNEAYEM-NH2
The description is as above.

A further test concerns the target T8, 125-135.
T8 peptide: {Biotin-PEG4′}-YEMPSEEGYQD-NH2
The description is as above.

For the next test, the target named is T9, 129-139.
T9 peptide: {Biotin-PEG4′}-SEEGYQDYEPE-NH2
Described as above.

A further test addresses T10, 122-132.
T10 construct: also called alphaSyn 122-132
T10 peptide: {Biotin-PEG4′}-NEAYEMPSEEG-NH2
Described as above.

Another test has as its target T11, 123-133.
T11 peptide: {Biotin-PEG4′}-EAYEMPSEEGY-NH2
Described as above.

The next test deals with T12, 130-140.
T12 construct: also called alphaSyn 130-140
T12 peptide: {Biotin-PEG4′}-EEGYQDYEPEA-NH2
The test is described as above.

The target in the next test is T13, 120-130.
T13 construct: also called alphaSyn 120-130
T13 peptide: {Biotin-PEG4′}-PDNEAYEMPSE-NH2
Described as above.

The target in the next test is T14, 121-131.
T14 construct: also called alphaSyn 121-131
T14 peptide: {Biotin-PEG4′}-DNEAYEMPSEE-NH2
The test is described as above.

The target in another test is T15, 119-129.
T15 peptide: {Biotin-PEG4′}-DPDNEAYEMPS-NH2
Described as above.

The next test has as its target T16, 116-126.
T16 construct: also called alphaSyn 116-126
T16 peptide: {Biotin-PEG4′}-MPVDPDNEAYE-NH2
Described as above.

Test [8] addresses T2, full-length human recombinant wild-type …. As to the kind of experiment: competition ELISA: antibody pre-incubated with titrated synuclein species in solution; unbound antibody captured on WT PFF-coated plate (CPS). This is another data set of the same source.
Test [9] deals with T3, full-length human recombinant wild-type …. Described as above. This is another data set of the same source.
Test [10] concerns the target T1, α-synuclein inducing species in brain …. Nature of the test: cell-based or functional assay. The source holds these as a separate data set.
Test [11] has as its target T2, full-length human recombinant wild-type …. Nature of the test: competition ELISA: antibody pre-incubated with titrated synuclein species in solution; unbound antibody captured on WT PFF-coated plate (CPS). This is another data set of the same source.
The target of test [12] is T3, full-length human recombinant wild-type …. The test is described as above. The source holds these as a separate data set.
The target is the same in test [13]. Described as above. This is another data set of the same source.

Changes are numbered by the printed parent chain. In names and notes the source's numbering stands. Read-outs that look alike come from different tables or passages of the source. Primed or numbered codes have the meaning given here. * marks the point of attachment. Biotin = O=C1N[C@H]2[C@H](CS[C@H]2CCCCC(=O)*)N1; PEG4′ = not defined here

B1: 11H11-1 (antibody, V domains shown)
VH: EVQLVQSGGGLVHPGGSLRLSCAGSGFTFSSYAMHWVRQAPGKGLEWVSAIGTGGGTYYADSVKGRFTISRDNAKNSLYLQMNSLRAEDMAVYYCARGNWEFDYWGQGTLVTVSS
VL: not shown
notes: shares its VH with 11H11-2
Take B1: in test [1], the “IC50 (nM), immunodepletion of pS129-inducing activity from MSA 04-51 lysate” value (from here on “IC50 (nM) … from MSA 04-51 lysate”) worked out at 0.15 nM. The “IC50 (nM), immunodepletion of pS129-inducing activity from MSA 12-18 lysate” value (“IC50 (nM) … from MSA 12-18 lysate” for short) in [2] turned out to be 0.76 nM. In addition, the EC50 (usually the concentration at which the effect is half-maximal) in test [3] was found to be 5.75 µM; in the test with rat αSyn 111-140 peptide it was 5.71 µM. Moreover, the binding result in [4] and in test [5] was “binds” throughout. In test [6], the “IC50 (nM), immunodepletion of pS129-inducing activity from PFF” value (“IC50 (nM), immunodepletion … from PFF” below) worked out at 0.066 nM. In addition, the “IC50 (nM), immunodepletion of pS129-inducing activity from MSA 01-03 lysate” value (“IC50 (nM) … from MSA 01-03 lysate” for short) in test [7] turned out to be 2.6 nM.

B2: 44B11 (antibody, V domains shown)
VH: EVQLVESGGGLIQPGGSLRLSCAASGFTVSSKYMSWVRQAPGKGLEWVSVMYSGGRRYYADSVKGRFTISRDNSKNTLYLQMNSLRAEDTAVYYCARGDRGDYWGQGTLVTVSS
VL: EIVLTQSPATLSLSPGERATLSCRASQSVSSYLAWYQQKPGQAPRLLIYDASNRATGIPARFSGSGSGTDFTLTISSLEPEDFAVYYCQQRSNWPITFGQGTRLEIK
Turning to B2, the “Fold Antibody 1, immunodepletion of MSA 04-51 lysate” value in [1] came out at 1.1 fold. For the same molecule, the “IC50 (nM) … from MSA 04-51 lysate” value in [1] came out at 0.41 nM. For the same molecule, the “Fold Antibody 1, immunodepletion of MSA 12-18 lysate” value in test [2] is 2.5 fold. In [2], the “IC50 (nM) … from MSA 12-18 lysate” value is 2.21 nM. Also, the binding result is reported as “no binding” with 128-138; “no binding” in the test with 118-128; “no binding” in the test with 124-134; “no binding” with 117-127; “no binding” with 125-135; “binds” with 129-139. For the same molecule, the binding result is on record as “no binding” with 122-132; “no binding” in the test with 123-133; “binds” in the test with 130-140; “no binding” in the test with 120-130; “no binding” with 121-131; “no binding” in the test with 119-129. Moreover, the binding result in the test with 116-126 is “no binding”. For the same molecule, the “Fold Antibody 1, immunodepletion of PFF” value in test [6] is 1.1 fold. Moreover, the “IC50 (nM), immunodepletion … from PFF” value in test [6] was 0.028 nM. Also, the “Fold Antibody 1, immunodepletion of MSA 01-03 lysate” value in test [7] stood at 0.9 fold. Further, the “IC50 (nM) … from MSA 01-03 lysate” value in test [7] stood at 2.7 nM.

B3: 15A5 (antibody, V domains shown)
VH: QVQLQESGPGLVKPSETLSLTCTVSGGSVSSGSYYWCWIRQPPGKGLEWIGYIYYSGRTKYNPSLKSRVTISVDTSKNQFSLKLSSVTAADTAVYYCARERGRFDYWGQGTLVTVSS
VL: not shown
Take B3: in [1], the “IC50 (nM) … from MSA 04-51 lysate” value is 0.12 nM. For the same molecule, the “IC50 (nM) … from MSA 12-18 lysate” value in [2] turned out to be 0.61 nM. For the same molecule, in test [6], the “IC50 (nM), immunodepletion … from PFF” value was 0.042 nM. Further, the “IC50 (nM) … from MSA 01-03 lysate” value in test [7] worked out at 0.59 nM. For the same molecule, the binding result in test [8] and in test [9] was “binds” each time.

B4: 7A10-hIgG1.3f (antibody, V domains shown)
VH: B3 VH with S33R, C37S, A98T, R103Y, F104L
VL: not shown
On to B4, for which, in [10], the “IC50 (nM) … from MSA 12-18 lysate” value came out at 0.52 nM.

B5: 7A10-Vh-T93A-hHC-IgG1.3f (antibody, V domains shown)
VH: B3 VH with S33R, C37S, R103Y, F104L
VL: not shown
Consider B5, for which, in [10], the “IC50 (nM) … from MSA 12-18 lysate” value was determined as 0.66 nM.

B6: 21A3-hIgG1.3f (antibody, V domains shown)
VH: B3 VH with S31N, G32R, S33N, C37S, L84V
VL: not shown
As to B6, the “IC50 (nM) … from MSA 12-18 lysate” value in test [10] turned out to be 0.19 nM.

B7: 21A3 (antibody, V domains shown)
VH: B3 VH with S31N, G32R, S33N, C37S, L84V
VL: not shown
notes: also called 21A03
Take B7: in [1], the “IC50 (nM) … from MSA 04-51 lysate” value worked out at 0.05 nM. Besides, the binding result in test [11] and in [12] was “binds” each time. The “IC50 (nM) … from MSA 12-18 lysate” value in [2] is 0.16 nM. In addition, the “IC50 (nM), immunodepletion … from PFF” value in [6] was 0.061 nM. Further, in test [7], the “IC50 (nM) … from MSA 01-03 lysate” value was 0.37 nM.

B8: 21A3-Vh-V82L-hHC-IgG1.3f (antibody, V domains shown)
VH: B3 VH with S31N, G32R, S33N, C37S
VL: not shown
With B8, the “IC50 (nM) … from MSA 12-18 lysate” value in [10] was determined as 0.11 nM.

B9: 7A10 (antibody, V domains shown)
VH: B3 VH with S33R, C37S, A98T, R103Y, F104L
VL: not shown
On to B9, for which the binding result in [13] was “binds”. For the same molecule, the “IC50 (nM) … from MSA 04-51 lysate” value in test [1] was found to be 0.04 nM. Further, the “IC50 (nM) … from MSA 12-18 lysate” value in test [2] is 0.39 nM. In addition, the “IC50 (nM), immunodepletion … from PFF” value in test [6] was 0.018 nM. For the same molecule, the “IC50 (nM) … from MSA 01-03 lysate” value in [7] amounted to 0.28 nM.

B10: 7A10-Vh-R56S-T93A-hHC-IgG1.3f (antibody, name in Kabat numbering, V domains shown)
VH: B3 VH with S33R, C37S, R58S, R103Y, F104L
VL: not shown
Regarding B10, the “IC50 (nM) … from MSA 12-18 lysate” value in [10] was 9 nM.

B11: 7A10-Vh-R56S-K58N-T93A-IgG1.3f (antibody, name in Kabat numbering, V domains shown)
VH: B3 VH with S33R, C37S, R58S, K60N, R103Y, F104L
VL: not shown
As for B11, the “IC50 (nM) … from MSA 12-18 lysate” value in test [10] is 51 nM.

B12: 36A3 (antibody, V domains shown)
VH: B3 VH with C37S, K77R, R103W, F104L, Y106P
VL: not shown
As for B12, the “IC50 (nM) … from MSA 04-51 lysate” value in test [1] stood at 0.17 nM. Also, in [2], the “IC50 (nM) … from MSA 12-18 lysate” value was found to be 0.63 nM. Further, the “IC50 (nM), immunodepletion … from PFF” value in test [6] amounted to 0.057 nM. Moreover, the “IC50 (nM) … from MSA 01-03 lysate” value in [7] was determined as 0.55 nM.

B13: 7A10-Vh-K58Y-T93A-hHC-IgG1.3f (antibody, name in Kabat numbering, V domains shown)
VH: B3 VH with S33R, C37S, K60Y, R103Y, F104L
VL: not shown
As for B13, the “IC50 (nM) … from MSA 12-18 lysate” value in [10] stood at 4.65 nM.
